In test [1] the target is human cholecystokinin-2 receptor (CCK2R) (human) (UniProt P32239). The experiment in a line: displacement of [125I]Tyr12-gastrin-I on A431-CCK2R cells, filter plates, 1 h RT. A general note: In a radioligand displacement assay an active substance lowers the binding of a labelled ligand.
In test [2] the target is T1, human cholecystokinin-2 receptor (CCK2R) (human, UniProt P32239 1-447).
T1 sequence (looked up): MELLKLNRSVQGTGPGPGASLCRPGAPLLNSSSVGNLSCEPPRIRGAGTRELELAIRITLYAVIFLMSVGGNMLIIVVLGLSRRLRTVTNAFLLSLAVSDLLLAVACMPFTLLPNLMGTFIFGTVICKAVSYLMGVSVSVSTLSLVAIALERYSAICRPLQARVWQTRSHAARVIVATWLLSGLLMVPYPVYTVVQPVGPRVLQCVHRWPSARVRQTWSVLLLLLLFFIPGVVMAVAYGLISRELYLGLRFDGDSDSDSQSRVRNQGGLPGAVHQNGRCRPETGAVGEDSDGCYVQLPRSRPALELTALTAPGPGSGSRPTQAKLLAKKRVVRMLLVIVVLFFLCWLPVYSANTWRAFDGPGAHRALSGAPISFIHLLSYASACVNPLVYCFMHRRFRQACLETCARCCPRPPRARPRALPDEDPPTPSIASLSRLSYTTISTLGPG
Nature of the test: cell-based or functional assay.

Test [3] concerns the target T1, human cholecystokinin-2 receptor (CCK2R). The experiment in a line: displacement of [125I]Tyr12-gastrin-I on A431-CCK2R cells, filter plates, 1 h RT. Here is the method: Affinity for CCK2R was studied in A431 human epidermoid carcinoma cells stably transfected with the plasmid pCR3.1 containing the full coding sequence for the human CCK2R (A431-CCK2R) kindly provided by Dr. Luigi Aloj (Aloj L et al., J Nucl Med 2004, 45:485-494). […] Binding assays were carried out in 96-well filter plates (MultiScreenHTS-FB, Merck Group, Darmstadt, Germany) pretreated with 10 mM TRIS/139 mM NaCl PH 7.4 (2×250 μl). For the assay a number of 200,000-400,000 A431-CCK2R cells per well was prepared in 35mM HEPES buffer pH 7.4 containing 10 mM MgCl₂, 14 μM bacitracin and 0.5% BSA (a hypotonic solution disturbing the integrity of the cell membranes). […] Incubation was interrupted by filtration of the medium and rapid rinsing with ice-cold 10 mM TRIS/139 mM NaCl PH 7.4 (2×200 μl) and the filters were counted in the gamma-counter. Half maximal inhibitory concentration (IC50) values were calculated following nonlinear regression with Origin software (Microcal Origin 6.1, Northampton, MA) and a representative assay was chosen for comparison.

The target in test [4] is serum proteins (fresh human serum) (human). The experiment in a line: incubation in fresh human serum at 37 C (500 pmol/mL), Sephadex G-50 size-exclusion chromatography, gamma counting. For orientation: Size exclusion chromatography separates by hydrodynamic size, large species first.

The values that follow come from patent publication US20250019402A1 (MEDIZINISCHE UNIVERSITAT INNSBRUCK, published 2025).

The IC50 is the concentration that gives 50% inhibition. The low end stands for greater potency in that assay, the high end for weaker potency in that assay.

[ ]: non-standard residue; d: D form. The star is where a group is joined. DOTA = O=C(O)CN1CCN(CC(=O)O)CCN(CC(=O)*)CCN(CC(=O)O)CC1; 1Nal = N[C@@H](Cc1cccc2ccccc12)C(=O)O; 2Nal = N[C@@H](Cc1ccc2ccccc2c1)C(=O)O; NMeF = CN[C@@H](Cc1ccccc1)C(=O)O; NMeNle = CCCC[C@H](NC)C(=O)O; HYNIC = NNc1ccc(C(=O)*)cn1

“DOTA-MG11 ([1,4,7,10-tetraazacyclodocecan-1,4,7,10-tetraacetic acid^0, D-Glu^1, DesGlu^2-6] minigastrin) (peptide)” showed an IC50 in test [1] of 0.9 nM. That is a sub-nanomolar value.

In test [2], ^111In-DOTA-MG11 (peptide) returned a cellular internalization after 2 h incubation on A431-CCK2R cells (% of total activity) of 29%. For {HYNIC}-[dE]AYGW[NMeNle]D[1Nal]-NH2 [HYNIC-MGS5 (HYNIC-DGlu-Ala-Tyr-Gly-Trp-(N-Me)Nle-Asp-1Nal-NH2)], the IC50 in test [3] amounted to 6 nM. That is a single-digit nanomolar value. Consider {DOTA}-[dE][dE][dE][dE][dE][dE]AYGWMDF-NH2 (also: DOTA coordinating 177Lu) [^177Lu-PP-F11], for which the “cell uptake after 2 h incubation on A431-CCK2R cells (% of total activity)” value (“cell uptake … (% of total activity)” below) in test [2] was under 30%. For the molecule {DOTA}-[dE]AYGW[NMeNle]D[1Nal]-NH2 (also: DOTA coordinating 177Lu) [^177Lu-DOTA-MGS5], the “cell uptake … (% of total activity)” value in test [2] amounted to 63%. Regarding {DOTA}-[dE]AYGW[NMeNle]D[2Nal]-NH2 (also: DOTA coordinating 111In) [^111In-DOTA-MGS5-2], the “cell uptake … (% of total activity)” value in test [2] amounted to 45%. Moreover, in test [4], the Percentage of radioligand bound to serum proteins after 4 h incubation stood at 31.7% and the Percentage of radioligand bound to serum proteins after 24 h incubation is 34.6%.

B1: DOTA-MGS10 (DOTA-DGlu-Tyr-Pro-Gly-Trp-(N-Me)Nle-Asp-1Nal-NH2) (peptide)
peptide: {DOTA}-[dE]YPGW[NMeNle]D[1Nal]-NH2
SMILES: CCCC[C@@H](C(=O)N[C@@H](CC(=O)O)C(=O)N[C@@H](Cc1cccc2ccccc12)C(N)=O)N(C)C(=O)[C@H](Cc1c[nH]c2ccccc12)NC(=O)CNC(=O)[C@@H]1CCCN1C(=O)[C@H](Cc1ccc(O)cc1)NC(=O)[C@@H](CCC(=O)O)NC(=O)CN1CCN(CC(=O)O)CCN(CC(=O)O)CCN(CC(=O)O)CC1
In test [3], B1 had a half-inhibitory concentration (IC50) of 0.9 nM. This counts as sub-nanomolar.

With {DOTA}-[dK]AYGW[NMeNle]D[1Nal]-NH2 (also: DOTA coordinating 111In) [^111In-DOTA-MGS9], in test [2], the “cell uptake … (% of total activity)” value came to 37%. In test [4], this molecule showed a Percentage of radioligand bound to serum proteins after 4 h incubation of 26.6% and a Percentage of radioligand bound to serum proteins after 24 h incubation of 27.8%.

B2: DOTA-MGS4 (DOTA-DGlu-Ala-Tyr-Gly-Trp-(N-Me)Nle-Asp-(N-Me)Phe-NH2) (peptide)
peptide: {DOTA}-[dE]AYGW[NMeNle]D[NMeF]-NH2
SMILES: CCCC[C@@H](C(=O)N[C@@H](CC(=O)O)C(=O)N(C)[C@@H](Cc1ccccc1)C(N)=O)N(C)C(=O)[C@H](Cc1c[nH]c2ccccc12)NC(=O)CNC(=O)[C@H](Cc1ccc(O)cc1)NC(=O)[C@H](C)NC(=O)[C@@H](CCC(=O)O)NC(=O)CN1CCN(CC(=O)O)CCN(CC(=O)O)CCN(CC(=O)O)CC1
In test [3], B2 registered an IC50 of 1.2 nM.

Take {DOTA}-[dE]AYGW[NMeNle]D[NMeF]-NH2 (also: DOTA coordinates 111In) [^111In-DOTA-MGS4 (^111In-DOTA-DGlu-Ala-Tyr-Gly-Trp-(N-Me)Nle-Asp-(N-Me)Phe-NH2)]: in test [4], the Percentage of radioligand bound to serum proteins after 4 h incubation came out at 8.9% and the Percentage of radioligand bound to serum proteins after 24 h incubation stood at 11.9%. In test [4], {DOTA}-[dE]PYGW[NMeNle]D[1Nal]-NH2 (also: DOTA coordinates 111In) [^111In-DOTA-MGS8] yielded a Percentage of radioligand bound to serum proteins after 4 h incubation of 44.5% and a Percentage of radioligand bound to serum proteins after 24 h incubation of 52.8%. With {DOTA}-[dE]AYPW[NMeNle]D[1Nal]-NH2 (also: DOTA coordinating 68Ga) [^68Ga-DOTA-MGS12], the “cellular internalization after 2 h incubation on A431-CCK2R cells (% of total activity)” value (shortened to “cellular internalization … (% of total activity)”) in test [2] was about 40%.

B3: DOTA-MGS5-2 (DOTA-DGlu-Ala-Tyr-Gly-Trp-(N-Me)Nle-Asp-2Nal-NH2) (peptide)
peptide: {DOTA}-[dE]AYGW[NMeNle]D[2Nal]-NH2
SMILES: CCCC[C@@H](C(=O)N[C@@H](CC(=O)O)C(=O)N[C@@H](Cc1ccc2ccccc2c1)C(N)=O)N(C)C(=O)[C@H](Cc1c[nH]c2ccccc12)NC(=O)CNC(=O)[C@H](Cc1ccc(O)cc1)NC(=O)[C@H](C)NC(=O)[C@@H](CCC(=O)O)NC(=O)CN1CCN(CC(=O)O)CCN(CC(=O)O)CCN(CC(=O)O)CC1
On to B3, for which the IC50 in test [3] is 1.6 nM.

For {DOTA}-[dE]AYPW[NMeNle]D[1Nal]-NH2 (also: DOTA coordinates 111In) [^111In-DOTA-MGS12], in test [4], the Percentage of radioligand bound to serum proteins after 4 h incubation came out at 41.2% and the Percentage of radioligand bound to serum proteins after 24 h incubation is 45.9%. For the molecule {HYNIC}-[dE]AYGW[NMeNle]D[1Nal]-NH2 (also: HYNIC coordinating 99mTc, co-ligand not given here) [^99mTc-HYNIC-MGS5], the “cell uptake … (% of total activity)” value in test [2] was 63%. With {DOTA}-[dE]AYGW[NMeNle]D[1Nal]-NH2 (also: DOTA coordinating 111In) [^111In-DOTA-MGS5], the “cell uptake … (% of total activity)” value in test [2] came out at 68%. Moreover, in test [4], the Percentage of radioligand bound to serum proteins after 4 h incubation stood at 41% and the Percentage of radioligand bound to serum proteins after 24 h incubation amounted to 44.3%. Regarding {DOTA}-[dE]YPGW[NMeNle]D[1Nal]-NH2 (also: DOTA coordinating 177Lu) [^177Lu-DOTA-MGS10], the “cellular internalization … (% of total activity)” value in test [2] is over 50%. Molecule {DOTA}-[dE]AYGWMD[1Nal]-NH2 [DOTA-MGS1 (DOTA-DGlu-Ala-Tyr-Gly-Trp-Met-Asp-1Nal-NH2)] showed an IC50 in test [3] of 1.9 nM. This lies in the single-digit nanomolar range. Turning to {DOTA}-[dE][dE][dE][dE][dE][dE]AYGWMDF-NH2 (also: DOTA coordinating 111In) [^111In-PP-F11], the “cellular internalization … (% of total activity)” value in test [2] was under 24%.

B4: DOTA-MGS8 (DOTA-DGlu-Pro-Tyr-Gly-Trp-(N-Me)Nle-Asp-1Nal-NH2) (peptide)
peptide: {DOTA}-[dE]PYGW[NMeNle]D[1Nal]-NH2
SMILES: CCCC[C@@H](C(=O)N[C@@H](CC(=O)O)C(=O)N[C@@H](Cc1cccc2ccccc12)C(N)=O)N(C)C(=O)[C@H](Cc1c[nH]c2ccccc12)NC(=O)CNC(=O)[C@H](Cc1ccc(O)cc1)NC(=O)[C@@H]1CCCN1C(=O)[C@@H](CCC(=O)O)NC(=O)CN1CCN(CC(=O)O)CCN(CC(=O)O)CCN(CC(=O)O)CC1
The molecule B4 returned an IC50 in test [3] of 1.6 nM.

B5: DOTA-MGS9 (DOTA-DLys-Ala-Tyr-Gly-Trp-(N-Me)Nle-Asp-1Nal-NH2) (peptide)
peptide: {DOTA}-[dK]AYGW[NMeNle]D[1Nal]-NH2
SMILES: CCCC[C@@H](C(=O)N[C@@H](CC(=O)O)C(=O)N[C@@H](Cc1cccc2ccccc12)C(N)=O)N(C)C(=O)[C@H](Cc1c[nH]c2ccccc12)NC(=O)CNC(=O)[C@H](Cc1ccc(O)cc1)NC(=O)[C@H](C)NC(=O)[C@@H](CCCCN)NC(=O)CN1CCN(CC(=O)O)CCN(CC(=O)O)CCN(CC(=O)O)CC1
Molecule B5 displayed an IC50 in test [3] of 1.8 nM. On to {DOTA}-[dE]AYGW[NMeNle]D[1Nal]-NH2 (also: DOTA coordinating 68Ga) [^68Ga-DOTA-MGS5], for which the “cell uptake … (% of total activity)” value in test [2] turned out to be 54%. In test [4], {DOTA}-[dE]AYGWMD[1Nal]-NH2 (also: DOTA coordinates 111In) [^111In-DOTA-MGS1 (^111In-DOTA-DGlu-Ala-Tyr-Gly-Trp-Met-Asp-1Nal-NH2)] yielded a Percentage of radioligand bound to serum proteins after 4 h incubation of 20% and a Percentage of radioligand bound to serum proteins after 24 h incubation of 28.8%. Turning to {DOTA}-[dE]YPGW[NMeNle]D[1Nal]-NH2 (also: DOTA coordinates 111In) [^111In-DOTA-MGS10], in test [4], the Percentage of radioligand bound to serum proteins after 4 h incubation amounted to 56.7% and the Percentage of radioligand bound to serum proteins after 24 h incubation stood at 53.4%.
